Measurements from patent US20230002480A1.

Columns and labels:
Assay in all cases: cell-based or functional assay
[1] = molecular target: HIV-1 Env of pseudovirus 211-9 (HIV-1)
[2] = molecular target: HIV-1 Env of pseudovirus 231965.c01 (HIV-1)
[3] = molecular target: HIV-1 Env of pseudovirus 263-8 (HIV-1)
[4] = molecular target: HIV-1 Env of pseudovirus 3103.v3.c10 (HIV-1)
[5] = molecular target: HIV-1 Env of pseudovirus 3301.v1.c24 (HIV-1)
[6] = molecular target: HIV-1 Env of pseudovirus 3365.v2.c2 (HIV-1)
[7] = molecular target: HIV-1 Env of pseudovirus 620345.c01 (HIV-1)
[8] = molecular target: HIV-1 Env of pseudovirus 6480.v4.c25 (HIV-1)
[9] = molecular target: HIV-1 Env of pseudovirus 6545.v4.c1 (HIV-1)
[10] = molecular target: HIV-1 Env of pseudovirus 6952.v1.c20 (HIV-1)
[11] = molecular target: HIV-1 Env of pseudovirus 89-F1_2_25 (HIV-1)
[12] = molecular target: HIV-1 Env of pseudovirus 9004SS_A3_4 (HIV-1)
[13] = molecular target: HIV-1 Env of pseudovirus BJOX010000.06.2 (HIV-1)
[14] = molecular target: HIV-1 Env of pseudovirus BJOX025000.01.1 (HIV-1)
[15] = molecular target: HIV-1 Env of pseudovirus C1080.c03 (HIV-1)
[16] = molecular target: HIV-1 Env of pseudovirus C3347.c11 (HIV-1)
[17] = molecular target: HIV-1 Env of pseudovirus P0402_c2_11 (HIV-1)
[18] = molecular target: HIV-1 Env of pseudovirus T255-34 (HIV-1)
[19] = molecular target: HIV-1 Env of pseudovirus T257-31 (HIV-1)
[20] = molecular target: HIV-1 Env of pseudovirus X1632_S2_B10 (HIV-1)
[21] = molecular target: HIV-1 Env of pseudovirus 246F C1G (HIV-1)
[22] = molecular target: HIV-1 Env of pseudovirus AC10.0.29 (HIV-1)
[23] = molecular target: HIV-1 Env of pseudovirus Ce1086_B2 (HIV-1)
[24] = molecular target: HIV-1 Env of pseudovirus HIV-0013095-2.11 (HIV-1)
[25] = molecular target: HIV-1 Env of pseudovirus HIV-16055-2.3 (HIV-1)
[26] = molecular target: HIV-1 Env of pseudovirus PVO.4 (HIV-1)
[27] = molecular target: HIV-1 Env of pseudovirus Q769.d22 (HIV-1)
[28] = molecular target: HIV-1 Env of pseudovirus SC05_8C11_2344 (HIV-1)
[29] = molecular target: HIV-1 Env of pseudovirus SC422661.8 (HIV-1)
[30] = molecular target: HIV-1 Env of pseudovirus THRO4156.18 (HIV-1)
[31] = molecular target: HIV-1 Env of pseudovirus TRJO4551.58 (HIV-1)
[32] = molecular target: HIV-1 Env of pseudovirus ZM135M.PL10a (HIV-1)
[33] = molecular target: HIV-1 Env of pseudovirus ZM197M.PB7 (HIV-1)
[34] = molecular target: HIV-1 Env of pseudovirus ZM247v1(Rev-) (HIV-1)

Substance: N49P7.2 (antibody)
- IC50 [1]: 0.363 µg/mL
- IC80 [1]: 1.22 µg/mL
- MPI [1]: 100
- IC50 [2]: 0.316 µg/mL
- IC80 [2]: 1.06 µg/mL
- MPI [2]: 100
- IC50 [3]: 0.095 µg/mL
- IC80 [3]: 0.641 µg/mL
- MPI [3]: 100
- IC50 [4]: 0.222 µg/mL
- IC80 [4]: 0.57 µg/mL
- MPI [4]: 100
- IC50 [5]: 0.05 µg/mL
- IC80 [5]: 0.137 µg/mL
- MPI [5]: 100
- IC50 [6]: 0.066 µg/mL
- IC80 [6]: 0.267 µg/mL
- MPI [6]: 100
- IC50 [7]: > 50 µg/mL
- IC80 [7]: > 50 µg/mL
- MPI [7]: 0
- IC50 [8]: 0.098 µg/mL
- IC80 [8]: 0.371 µg/mL
- MPI [8]: 100
- IC50 [9]: > 50 µg/mL
- IC80 [9]: > 50 µg/mL
- MPI [9]: 4
- IC50 [10]: > 50 µg/mL
- IC80 [10]: > 50 µg/mL
- MPI [10]: 0
- IC50 [11]: > 50 µg/mL
- IC80 [11]: > 50 µg/mL
- MPI [11]: 18
- IC50 [12]: 0.266 µg/mL
- IC80 [12]: 1.62 µg/mL
- MPI [12]: 100
- IC50 [13]: 0.267 µg/mL
- IC80 [13]: 1.11 µg/mL
- MPI [13]: 100
- IC50 [14]: 0.102 µg/mL
- IC80 [14]: 0.831 µg/mL
- MPI [14]: 100
- IC50 [15]: 0.279 µg/mL
- IC80 [15]: 1.76 µg/mL
- MPI [15]: 100
- IC50 [16]: 0.047 µg/mL
- IC80 [16]: 0.154 µg/mL
- MPI [16]: 100
- IC50 [17]: 0.106 µg/mL
- IC80 [17]: 0.4 µg/mL
- MPI [17]: 100
- IC50 [18]: 0.167 µg/mL
- IC80 [18]: 0.527 µg/mL
- MPI [18]: 100
- IC50 [19]: 0.627 µg/mL
- IC80 [19]: 1.79 µg/mL
- MPI [19]: 100
- IC50 [20]: > 50 µg/mL
- IC80 [20]: > 50 µg/mL
- MPI [20]: 22

Substance: N49P11 (antibody)
- IC50 [1]: 5.67 µg/mL
- IC80 [1]: 18.2 µg/mL
- MPI [1]: 100
- IC50 [2]: 9.78 µg/mL
- IC80 [2]: 24.2 µg/mL
- MPI [2]: 100
- IC50 [3]: 0.064 µg/mL
- IC80 [3]: 0.259 µg/mL
- MPI [3]: 100
- IC50 [4]: 12.6 µg/mL
- IC80 [4]: 26.4 µg/mL
- MPI [4]: 100
- IC50 [5]: 1.98 µg/mL
- IC80 [5]: 15.7 µg/mL
- MPI [5]: 100
- IC50 [6]: 0.064 µg/mL
- IC80 [6]: 0.452 µg/mL
- MPI [6]: 100
- IC50 [7]: 11.7 µg/mL
- IC80 [7]: 27.9 µg/mL
- MPI [7]: 100
- IC50 [8]: 0.227 µg/mL
- IC80 [8]: 1.03 µg/mL
- MPI [8]: 100
- IC50 [9]: 6.47 µg/mL
- IC80 [9]: 22.9 µg/mL
- MPI [9]: 100
- IC50 [10]: 6.57 µg/mL
- IC80 [10]: 22.7 µg/mL
- MPI [10]: 100
- IC50 [11]: 4.24 µg/mL
- IC80 [11]: 16.6 µg/mL
- MPI [11]: 100
- IC50 [12]: 0.296 µg/mL
- IC80 [12]: 3.24 µg/mL
- MPI [12]: 100
- IC50 [13]: 6.81 µg/mL
- IC80 [13]: 21.8 µg/mL
- MPI [13]: 100
- IC50 [14]: 0.361 µg/mL
- IC80 [14]: 2.58 µg/mL
- MPI [14]: 100
- IC50 [15]: 0.162 µg/mL
- IC80 [15]: 1.45 µg/mL
- MPI [15]: 100
- IC50 [16]: 0.055 µg/mL
- IC80 [16]: 0.192 µg/mL
- MPI [16]: 100
- IC50 [17]: 0.091 µg/mL
- IC80 [17]: 0.698 µg/mL
- MPI [17]: 100
- IC50 [18]: 0.418 µg/mL
- IC80 [18]: 3.83 µg/mL
- MPI [18]: 100
- IC50 [19]: 0.7 µg/mL
- IC80 [19]: 2.9 µg/mL
- MPI [19]: 100
- IC50 [20]: 9.73 µg/mL
- IC80 [20]: 26.1 µg/mL
- MPI [20]: 100

Substance: VRC01 (antibody)
- IC50, titer in TZM.bl cells [1]: 14.3 µg/mL
- IC80, titer in TZM.bl cells [1]: > 50 µg/mL
- IC50, titer in TZM.bl cells [2]: 0.34 µg/mL
- IC80, titer in TZM.bl cells [2]: 1.2 µg/mL
- IC50, titer in TZM.bl cells [21]: > 10 µg/mL
- IC80, titer in TZM.bl cells [21]: > 10 µg/mL
- IC50, titer in TZM.bl cells [3]: 0.2 µg/mL
- IC80, titer in TZM.bl cells [3]: 0.55 µg/mL
- IC50, titer in TZM.bl cells [4]: 0.93 µg/mL
- IC80, titer in TZM.bl cells [4]: 2.49 µg/mL
- IC50, titer in TZM.bl cells [5]: 0.14 µg/mL
- IC80, titer in TZM.bl cells [5]: 0.32 µg/mL
- IC50, titer in TZM.bl cells [6]: 0.06 µg/mL
- IC80, titer in TZM.bl cells [6]: 0.17 µg/mL
- IC50, titer in TZM.bl cells [7]: > 50 µg/mL
- IC80, titer in TZM.bl cells [7]: > 50 µg/mL
- IC50, titer in TZM.bl cells [8]: 0.04 µg/mL
- IC80, titer in TZM.bl cells [8]: 0.09 µg/mL
- IC50, titer in TZM.bl cells [9]: > 50 µg/mL
- IC80, titer in TZM.bl cells [9]: > 50 µg/mL
- IC50, titer in TZM.bl cells [10]: 0.04 µg/mL
- IC80, titer in TZM.bl cells [10]: 0.12 µg/mL
- IC50, titer in TZM.bl cells [22]: 2.2 µg/mL
- IC80, titer in TZM.bl cells [22]: 6.5 µg/mL
- IC50, titer in TZM.bl cells [15]: 3.4 µg/mL
- IC80, titer in TZM.bl cells [15]: 14.4 µg/mL
- IC50, titer in TZM.bl cells [16]: 0.17 µg/mL
- IC80, titer in TZM.bl cells [16]: 0.58 µg/mL
- IC50, titer in TZM.bl cells [23]: 0.42 µg/mL
- IC80, titer in TZM.bl cells [23]: 1.44 µg/mL
- IC50, titer in TZM.bl cells [24]: 0.11 µg/mL
- IC80, titer in TZM.bl cells [24]: 0.33 µg/mL
- IC50, titer in TZM.bl cells [25]: 0.08 µg/mL
- IC80, titer in TZM.bl cells [25]: 0.26 µg/mL
- IC50, titer in TZM.bl cells [17]: 0.21 µg/mL
- IC80, titer in TZM.bl cells [17]: 0.59 µg/mL
- IC50, titer in TZM.bl cells [26]: 0.22 µg/mL
- IC80, titer in TZM.bl cells [26]: 1.2 µg/mL
- IC50, titer in TZM.bl cells [27]: 0.08 µg/mL
- IC80, titer in TZM.bl cells [27]: 0.29 µg/mL
- IC50, titer in TZM.bl cells [28]: 0.64 µg/mL
- IC80, titer in TZM.bl cells [28]: 1.91 µg/mL
- IC50, titer in TZM.bl cells [29]: 0.08 µg/mL
- IC80, titer in TZM.bl cells [29]: 0.265 µg/mL
- IC50, titer in TZM.bl cells [18]: 0.7 µg/mL
- IC80, titer in TZM.bl cells [18]: 2.7 µg/mL
- IC50, titer in TZM.bl cells [19]: 2.8 µg/mL
- IC80, titer in TZM.bl cells [19]: 8.66 µg/mL
- IC80, titer in TZM.bl cells [30]: 23 µg/mL
- IC50, titer in TZM.bl cells [31]: 0.08 µg/mL
- IC80, titer in TZM.bl cells [31]: 0.21 µg/mL
- IC50, titer in TZM.bl cells [20]: 0.12 µg/mL
- IC80, titer in TZM.bl cells [20]: 0.74 µg/mL
- IC50, titer in TZM.bl cells [32]: 0.35 µg/mL
- IC80, titer in TZM.bl cells [32]: 2.7 µg/mL
- IC50, titer in TZM.bl cells [33]: 0.36 µg/mL
- IC80, titer in TZM.bl cells [33]: 1.6 µg/mL
- IC50, titer in TZM.bl cells [34]: 0.35 µg/mL
- IC80, titer in TZM.bl cells [34]: 1.29 µg/mL
